Experimental findings from the supplement of paper PMC10567573 are described below.

The chains are these.
B1: C10orf62 (parent)
chain: TSECPSDKDKSPESHKAKNESWIK
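Further: lentivirally expressed fusions sorted by FACS into six bins by GFP to DsRed ratio, PSI derived from sequencing read proportions per bin multiplied by bin number.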

The variants in this data set derive from B1. Put plainly: protein stability index of a GFP-peptide fusion (GPS, HEK-293T) (PSI 1-6); higher = more stable. Conditions: c terminus: a fixed tail appended.
In the case of TSECPSDKDKSPESQKAKNESWIK [H15Q], the protein stability index amounted to 3.37. To TSECPSDKDKSPESDKAKNESWIK [H15D] belongs 3.92; to TSECPSDKDKSPESNKAKNESWIK [H15N], 2.69. To TSECPSDKDKSPESMKAKNESWIK [H15M] belongs 2.83.

Take TSECPSDKDKSPESGKAKNESWIK [H15G]: the protein stability index worked out at 3.69. The figure for TSECPSDKDKSPESPKAKNESWIK [H15P] is 3.92. The figure for TSECPSDKDKSPESAKAKNESWIK [H15A] is 4.12; for TSECPSDKDKSPESIKAKNESWIK [H15I] it is 4.07. To TSECPSDKDKSPESKKAKNESWIK [H15K] belongs 4.06; to TSECPSDKDKSPESEKAKNESWIK [H15E], 3.84. Turning to TSECPSDKDKSPESLKAKNESWIK [H15L], the protein stability index stood at 3.48. The figure for TSECPSDKDKSPESVKAKNESWIK [H15V] is 3.88. The figure for TSECPSDKDKSPESWKAKNESWIK [H15W] is 3.33; for TSECPSDKDKSPESYKAKNESWIK [H15Y] it is 3.35.

Turning to TSECPSDKDKSPESRKAKNESWIK [H15R], the protein stability index was determined as 3.31. The figure for TSECPSDKDKSPESTKAKNESWIK [H15T] is 2.99.

Take TSECPSDKDKSPESCKAKNESWIK [H15C]: the protein stability index came out at 3.2.

TSECPSDKDKSPESFKAKNESWIK [H15F]: the protein stability index came to 3.

Regarding TSECPSDADKSPESHKAKNESWIK [K8A], the protein stability index was 3.08. The figure for TSECPSDVDKSPESHKAKNESWIK [K8V] is 3.62.

As to TSECPSDEDKSPESHKAKNESWIK [K8E], the protein stability index was determined as 4.41. The figure for TSECPSDCDKSPESHKAKNESWIK [K8C] is 3.52; for TSECPSDFDKSPESHKAKNESWIK [K8F] it is 3.68. Turning to TSECPSDQDKSPESHKAKNESWIK [K8Q], the protein stability index worked out at 3.52. On to TSECPSDLDKSPESHKAKNESWIK [K8L], for which the protein stability index worked out at 3.38. The figure for TSECPSDRDKSPESHKAKNESWIK [K8R] is 3.95; for TSECPSDNDKSPESHKAKNESWIK [K8N] it is 3.31; for TSECPSDDDKSPESHKAKNESWIK [K8D] it is 3.35.

On to TSECPSDPDKSPESHKAKNESWIK [K8P], for which the protein stability index is 3.38.

Turning to TSECPSDIDKSPESHKAKNESWIK [K8I], the protein stability index was 3.48. To TSECPSDYDKSPESHKAKNESWIK [K8Y] belongs 3.26; to TSECPSDSDKSPESHKAKNESWIK [K8S], 3.84; to TSECPSDGDKSPESHKAKNESWIK [K8G], 4.03. In the case of TSECPSDTDKSPESHKAKNESWIK [K8T], the protein stability index stood at 3.45. Consider TSECPSDWDKSPESHKAKNESWIK [K8W], for which the protein stability index turned out to be 2.99.

Take TSECPSDMDKSPESHKAKNESWIK [K8M]: the protein stability index turned out to be 3.52. To TSECPSDHDKSPESHKAKNESWIK [K8H] belongs 3.15. To TSECPSDKDKSPEIHKAKNESWIK [S14I] belongs 3.66; to TSECPSDKDKSPENHKAKNESWIK [S14N], 3.95. The figure for TSECPSDKDKSPEWHKAKNESWIK [S14W] is 4; for TSECPSDKDKSPEEHKAKNESWIK [S14E] it is 4.58; for TSECPSDKDKSPEDHKAKNESWIK [S14D] it is 4.49. On to TSECPSDKDKSPEYHKAKNESWIK [S14Y], for which the protein stability index was determined as 3. To TSECPSDKDKSPEMHKAKNESWIK [S14M] belongs 3.34; to TSECPSDKDKSPEVHKAKNESWIK [S14V], 3.98.

Regarding TSECPSDKDKSPEPHKAKNESWIK [S14P], the protein stability index is 3.2. TSECPSDKDKSPEAHKAKNESWIK [S14A]: the protein stability index was determined as 3.7.

Take TSECPSDKDKSPERHKAKNESWIK [S14R]: the protein stability index was 3.82. To TSECPSDKDKSPECHKAKNESWIK [S14C] belongs 3.52; to TSECPSDKDKSPEFHKAKNESWIK [S14F], 3.89; to TSECPSDKDKSPEHHKAKNESWIK [S14H], 3.71. To TSECPSDKDKSPEGHKAKNESWIK [S14G] belongs 3.5. The figure for TSECPSDKDKSPELHKAKNESWIK [S14L] is 3.48. Regarding TSECPSDKDKSPEKHKAKNESWIK [S14K], the protein stability index turned out to be 2.82. To TSECPSDKDKSPEQHKAKNESWIK [S14Q] belongs 4.13; to TSECPSDKDKSPETHKAKNESWIK [S14T], 3.41. The figure for TSECPSDKDKWPESHKAKNESWIK [S11W] is 3.26; for TSECPSDKDKYPESHKAKNESWIK [S11Y] it is 2.5.

As to TSECPSDKDKCPESHKAKNESWIK [S11C], the protein stability index worked out at 3.31.

With TSECPSDKDKDPESHKAKNESWIK [S11D], the protein stability index was found to be 2.29.

With TSECPSDKDKKPESHKAKNESWIK [S11K], the protein stability index was 3.81. To TSECPSDKDKNPESHKAKNESWIK [S11N] belongs 3.7. The figure for TSECPSDKDKAPESHKAKNESWIK [S11A] is 3.41.

As to TSECPSDKDKHPESHKAKNESWIK [S11H], the protein stability index turned out to be 3.01.

For the variant TSECPSDKDKPPESHKAKNESWIK [S11P], the protein stability index is 3.52. To TSECPSDKDKFPESHKAKNESWIK [S11F] belongs 2.98; to TSECPSDKDKTPESHKAKNESWIK [S11T], 3.85.

On to TSECPSDKDKEPESHKAKNESWIK [S11E], for which the protein stability index amounted to 3.67.

For the variant TSECPSDKDKLPESHKAKNESWIK [S11L], the protein stability index came to 3.04. To TSECPSDKDKMPESHKAKNESWIK [S11M] belongs 3.26. To TSECPSDKDKQPESHKAKNESWIK [S11Q] belongs 1.92; to TSECPSDKDKRPESHKAKNESWIK [S11R], 2.92.

For TSECPSDKDKIPESHKAKNESWIK [S11I], the protein stability index turned out to be 3.2.

Consider TSECPSDKDKVPESHKAKNESWIK [S11V], for which the protein stability index was determined as 2.96. The figure for TSECPSDKDKGPESHKAKNESWIK [S11G] is 3; for TSECPSDKDKSFESHKAKNESWIK [P12F] it is 2.44. To TSECPSDKDKSRESHKAKNESWIK [P12R] belongs 1.66; to TSECPSDKDKSWESHKAKNESWIK [P12W], 2.37; to TSECPSDKDKSKESHKAKNESWIK [P12K], 2.86. The figure for TSECPSDKDKSSESHKAKNESWIK [P12S] is 2.54; for TSECPSDKDKSMESHKAKNESWIK [P12M] it is 3.19.

TSECPSDKDKSQESHKAKNESWIK [P12Q]: the protein stability index is 3.79. The figure for TSECPSDKDKSEESHKAKNESWIK [P12E] is 3.15; for TSECPSDKDKSTESHKAKNESWIK [P12T] it is 3.54; for TSECPSDKDKSYESHKAKNESWIK [P12Y] it is 2.74.

In the case of TSECPSDKDKSVESHKAKNESWIK [P12V], the protein stability index came to 2.4. The figure for TSECPSDKDKSGESHKAKNESWIK [P12G] is 3.48; for TSECPSDKDKSCESHKAKNESWIK [P12C] it is 3.62. The figure for TSECPSDKDKSAESHKAKNESWIK [P12A] is 2.87; for TSECPSDKDKSDESHKAKNESWIK [P12D] it is 3.83; for TSECPSDKDKSHESHKAKNESWIK [P12H] it is 3.44.

For TSECPSDKDKSLESHKAKNESWIK [P12L], the protein stability index was 2.77. TSECPSDKDKSIESHKAKNESWIK [P12I]: the protein stability index stood at 3.21. The figure for TSECPSDKDKSNESHKAKNESWIK [P12N] is 3.3.
